Results: the supplement of paper PMC11865577

Columns and labels:
Experiment in all cases: pull-down binding Z-score (relative to library population); higher = stronger binding
Details in all cases: RNA library: Library-2
[1] = tested on: TO-3-N3-2 (biotin conjugate)
Outline: (§1)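 To score binding, a beads-only signal was subtracted, barcoded replicate probes were averaged with the highest and lowest dropped, and the value was converted to a Z-score using the library mean and standard deviation. The input was 1 μg of Cy5- or Cy3-end-labelled RNA library, heat-folded in phosphate/NaCl/KCl buffer and mixed for 60 min at 25 °C with streptavidin beads carrying 100 pmol of biotin-conjugated small molecule. Bound RNA was eluted in hot SDS and hybridised to a DNA barcode microarray at 55.5 °C for 20 h.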

[2] = tested on: TO-N3-2 (biotin conjugate)
Outline: as §1

TO-N3 (biotin conjugate) = tested on: TO-N3 (biotin conjugate)
Outline: as §1

[3] = tested on: TO-3-N3 (biotin conjugate)
Outline: as §1

Row | Sequence | pull-down binding Z-score [1] | pull-down binding Z-score [2] | pull-down binding Z-score (TO-N3 (biotin conjugate)) | pull-down binding Z-score [3]
1 | UACAAACUUGUG [DMSMaPseq_invitro_SARS-CoV-2_Motif_398] | -0.609 | -1.04 | -1.02 | -0.625
2 | GUACGAUCGAGUGUAC [DMSMaPseq_invitro_SARS-CoV-2_Motif_538] | -0.222 | 0.0595 | 0.105 | 0.143
3 | AUUGUUGUCGCUUCCAAGAAAAGGACGAAGAUGACAAU [DMSMaPseq_invitro_SARS-CoV-2_Motif_245] | -0.272 | -0.371 | -0.00678 | 0.287
4 | UAUUACAGAUCUUUACCAGGAGUUUUCUGUGGUG | -0.388 | -0.779 | -0.72 | -0.624
5 | AAGGUAAGAGGGAUACUUACCUG [U1snRNP5ss-26] | -0.286 | -0.262 | -0.673 | -0.614
6 | ACCUUGAAGGAAAACAGGGU | 0.457 | -0.135 | 0.58 | 0.525
7 | GGUGUUUUAACU | -0.285 | -0.847 | -0.303 | -0.133
8 | GGAGAAAAUUCC [IAV_invivo_PA_3_Motif_17+IAV_invivo_PA_3_Motif_17] | -0.333 | -0.726 | -0.797 | -0.517
9 | GGUUUGUUACAGACACACC [SHAPE_invivo_SARS-CoV-2_Motif_243] | -0.488 | -0.785 | -0.748 | -0.427
10 | GAUUAUGUGUACCUUCCUUACCCAGAUCCAUCAAGAAUCCUAGGGGCCGGCUGUUUUGUAGAUGAUAUCGUAAAAACAGAUGGUACACUUAUGAUU [SHAPE_invitro_SARS-CoV-2_Multi_44_ComplexLevel_1] | 0.262 | 0.0805 | 0.661 | 0.359
11 | UGGGUUGGGUUGGGUUGGGUUGGGUUGGGU [G4_r(UGGGU)6] | 10.2 | 5.72 | 7.32 | 8.7
12 | UGCAACGAUACCGAUACAAGCCUCACUCCCUUUCGGAUGGCUUAUUGUUGGCGUUGCA | -0.134 | -0.000368 | -0.366 | -0.475
13 | CUCCAAAAAGAG | -0.675 | -1.2 | -1.21 | -0.901
14 | CAUCAAAACCAAGCAAGAGGUCAUUUAUUGAAGAUCUACUUUUCAACAAAGUGACACUUGCAGAUG [DMSMaPseq_invitro_SARS-CoV-2_Motif_426] | -0.0955 | -0.851 | -0.92 | -0.806
15 | GAGACGGUCGGGUCCAGAUAUUCGUAUCUGUCGAGUAGAGUGUGGGCUCC [Broccoli] | 0.495 | 1.99 | 1.12 | 0.184
16 | ACAUCUCUGGCAUUAAUGCUUCAGUUGU [SHAPE_invivo_SARS-CoV-2_Motif_471] | -0.583 | -1.06 | -1.33 | -1.08
17 | GGAUGGUCUUCAAUCC [IAV_invivo_PB1_2_Motif_23+IAV_invivo_PB1_2_Motif_23] | -0.137 | -0.515 | -0.47 | -0.481
18 | AAGGCUGAUGAAACUCAAGCCUU | -0.269 | -0.106 | -0.413 | -0.506
19 | ACACUAAUUCUUUCACACGUGGUGU [DMSMaPseq_invitro_SARS-CoV-2_Motif_381] | -0.0877 | -0.973 | -0.398 | -0.0462
20 | CCAGAGAAGAAACUGG | 0.0828 | 0.486 | 0.417 | 0.466
21 | GGCUUCAUUUAAUUAUUUGAAGUC | -0.711 | -1.75 | -1.24 | -0.867
22 | GUUGUCUUUGAUGAAAUUUCAAUGGCCAC [DMSMaPseq_invitro_SARS-CoV-2_Motif_310] | -0.29 | 0.376 | -0.615 | -0.693

Row | Sequence | pull-down binding Z-score [1] | pull-down binding Z-score [2] | pull-down binding Z-score (TO-N3 (biotin conjugate)) | pull-down binding Z-score [3]
23 | CACCACUUAACCGAAAUUAUGUCUUUACUGGUUAUCGUGUAACUAAAAACAGUAAAGUACAAAUAGGAGAGUACACCUUUGAAAAAGGUGACUAUGGUG | -0.419 | -0.309 | -0.623 | -0.803
24 | AAGACUCAUCUCUAUGAUGGGUUUU | -0.575 | -1.46 | -1.34 | -0.938
25 | AUUAUGAGGACUUUUAAAGUUUCCAUUUGGAAUCUUGAUUACAUCAUAAACCUCAUAAU | -0.377 | -1.25 | -1.39 | -1.1
26 | UGGGAUAUUGCCCG [IAV_invivo_PB2_1_Motif_20+IAV_invivo_PB2_1_Motif_20] | -0.289 | -0.104 | -0.0714 | -0.462
27 | CCUCUUGAGUGCAUUAAAGACCUUCUAGCACGUGCUGGUAAAGCUUCAUGCACUUUGUCCGAACAACUGGACUUUAUUGACACUAAGAGG [SHAPE_invitro_SARS-CoV-2_Multi_2_ComplexLevel_1] | -0.0693 | 0.844 | 0.899 | 0.756
28 | CACAGAAAAGUACUGUG [SHAPE_invivo_SARS-CoV-2_Motif_52] | 0.427 | -0.279 | 0.891 | 1.15
29 | UAAAGUACUUAAUGAGAAGUGCUCUGCCUAUACAGUUGAACUCGGUACAGAAGUAAAUGAGUUCGCCUGUGUUGUGGCAGAUGCUGUCAUAAAAACUUUG [DMSMaPseq_invitro_SARS-CoV-2_Motif_52] | 0.122 | 0.722 | -0.501 | -0.419
30 | GCUGGUCUGACUCACAUGAUGAUCUGGC [IAV_invivo_NP_5_Motif_8+IAV_invivo_NP_5_Motif_8] | -0.265 | 0.653 | -0.454 | -0.624
31 | UGCCUUCAAACUCAACAUUAAAUUGUUGGGUGUUGGUGGCA | -0.352 | -1.07 | -0.909 | -0.701
32 | UCCCAUGAGGGG [IAV_invivo_HA_4_Motif_6+IAV_invivo_HA_4_Motif_6] | -0.725 | -1.39 | -1.28 | -0.753
33 | CACUUAUCUUAGCCUACUGUAAUAAGACAGUAGGUGAGUUAGGUG | -0.273 | -1.07 | -1.2 | -0.861
34 | GGAUGAGAGAACUCAUCC [IAV_invivo_NP_5_Motif_6+IAV_invivo_NP_5_Motif_6] | -0.323 | -0.939 | -0.724 | -0.302
35 | CCUACUGAUGG [IAV_invivo_PA_3_Motif_12+IAV_invivo_PA_3_Motif_12] | -0.207 | -0.632 | -0.319 | 0.0894
36 | AAAUUUACAAGAAUUU [SHAPE_invivo_SARS-CoV-2_Motif_380] | -0.556 | -1.48 | -0.556 | -0.131
37 | AGUGAUGGAACU [DMSMaPseq_invitro_SARS-CoV-2_Motif_229] | -0.117 | -0.572 | -0.658 | -0.565
38 | CCCUAAGACUAAAAAUGUUACAAAAGAAAAUGACUCUAAAGAGGGUUUUUUCACUUACAUUUGUGGG [DMSMaPseq_invitro_SARS-CoV-2_Motif_371] | -0.271 | -0.589 | -1.03 | -0.845
39 | AGUGCCAACAGACAAUUAUAUAACCACUUACCCGGGUCAGGGUUUAAAUGGUUACACU | -0.123 | -0.739 | -0.462 | -0.449
40 | GUACCUCAAGCUGAUGUAGAAUGGAAGUUCUAUGAUGCACAGCCUUGUAGUGAC [SHAPE_invitro_SARS-CoV-2_Motif_348] | -0.203 | 0.735 | -0.178 | -0.418
41 | CCACGCCAGGUAGUGG | 0.0319 | -0.539 | 0.912 | 1.16
42 | AUGCUGUUACAGCGU | -0.512 | -1.07 | -1.35 | -0.973
43 | GAUUUGGCUACUAACAAUC [SHAPE_invitro_SARS-CoV-2_Motif_40] | 0.126 | -0.0811 | 0.624 | 0.705
44 | GUGGCACUGAGAAUUUGACUAAAGAAGGUGCCAC | 0.147 | 0.38 | 0.595 | 0.452

Row | Sequence | pull-down binding Z-score [1] | pull-down binding Z-score [2] | pull-down binding Z-score (TO-N3 (biotin conjugate)) | pull-down binding Z-score [3]
45 | GGUGAAGGACGGGUCCAGUAGUUCGCUACUGUUGAGUAGAGUGUGAGCUCC [BabySpinach] | 0.648 | 2.02 | 2.08 | 1.09
46 | UUAAUGGAGUCACAUUAA [DMSMaPseq_invitro_SARS-CoV-2_Motif_357] | -0.347 | -1 | 0.273 | 0.485
47 | UGUGUCAAUAUUUAAACACA | -0.00504 | -0.99 | 0.135 | 0.372
48 | ACCAGGAGUUUUCUGUGGUGUAGAUGCUGUAAAUUUACUUACUAAUAUGUUUACACCACUAAUUCAACCUAUUGGU [SHAPE_invitro_SARS-CoV-2_Motif_181] | -0.13 | -0.878 | -0.0352 | -0.0454
49 | CUGCAGAUGCAG [IAV_invivo_HA_4_Motif_2+IAV_invivo_HA_4_Motif_2] | -0.317 | -1.28 | -0.419 | -0.112
50 | GUUACGACUAUUGUAUACCUUACAAUAGUGUAAC | 0.229 | 0.142 | 0.531 | 0.593
51 | GUGUACCUUCCUUACCCAGAUCCAUCAAGAAUCCUAGGGGCCGGCUGUUUUGUAGAUGAUAUCGUAAAAACAGAUGGUACAC [SHAPE_invivo_SARS-CoV-2_Multi_39_ComplexLevel_1] | -0.087 | 0.318 | 0.78 | 0.725
52 | AUCUUAGGGAAUUUGUGUUUAAGAAUAUUGAUGGUUAUUUUAAAAUAUAUUCUAAGCACACGCCUAUUAAUUUAGUGCGUGAUCUCCCUCAGGGU | -0.113 | -0.222 | -0.897 | -0.775
53 | GUUCUUUGAGAAC [IAV_invivo_PA_3_Motif_25+IAV_invivo_PA_3_Motif_25] | -0.317 | -0.894 | 0.0597 | 0.296
54 | GGGCUCAUACCC [IAV_invivo_HA_4_Motif_7+IAV_invivo_HA_4_Motif_7] | 0.875 | 0.397 | 0.483 | 0.721
55 | GAUGAGUACGAACUUAUGUACUCAUU | -0.473 | -0.762 | -1.25 | -0.907
56 | GGCUGGAUCGAGUGAGCAAGCAGCAGAGGCC [IAV_invivo_M1_M2_7_Motif_14+IAV_invivo_M1_M2_7_Motif_14] | 0.757 | 2.47 | 1.37 | 0.316
57 | GAAGGCUAUUUGAACUCUACUAAUGUCACUAUUGCAACCUACUGUACUGGUUCUAUACCUUGUAGUGUUUGUCUUAGUGGUUUAGAUUCUUU | -0.458 | -0.467 | -0.505 | -0.541
58 | CUUCCGAGUCAUAGGAAACUAUGACAUACAGAUCAACAGGGGCUCGCUUGAGCCCCCCAGCCAGUCGGAGG [mMTR1] | -0.458 | -0.704 | -1.09 | -0.97
59 | AAAGGACUGGUAUGAUUUUGUAGAAAACCCAGAUAUAUUACGCGUAUACGCCAACUUAGGUGAACGUGUACGCCAAGCUUU | -0.0434 | 0.0415 | -0.193 | -0.541
60 | GUGGUUGACCUACACAGGUGCCAU | -0.562 | 0.102 | -0.612 | -0.678
61 | CAACUGAAAUCUAUCAGGCCGGUAGCACACCUUGUAAUGGUGUUGAAGGUUUUAAUUG [SHAPE_invivo_SARS-CoV-2_Motif_433] | -0.292 | 0.0571 | -0.566 | -0.552
62 | UCGUCAAUAGGGCGA [IAV_invivo_PB2_1_Motif_18+IAV_invivo_PB2_1_Motif_18] | -0.184 | -0.56 | -0.554 | -0.228
63 | GGAGAGUGUGGACACUUAUGAAUGUCUUGACACUCGUU [SHAPE_invitro_SARS-CoV-2_Motif_211] | 0.121 | 0.364 | 0.586 | 0.331
64 | UGUUGCUUAUGAAAGUUUACGCCCUGACACACGUUAUGUGCUCAUGGAUGGCUCUAUUAUUCAAUUUCCUAACACCUACCUUGAAGGUUCUGUUAGAGUGGUAACA [SHAPE_invitro_SARS-CoV-2_Multi_27_ComplexLevel_1] | 0.0467 | 0.0671 | -0.452 | -0.56
65 | UGCACUUGACCCUCUCUCAGAAACAAAGUGUA | -0.162 | -0.236 | 0.625 | 0.756
